Consider five molecules from patent publication EP4538294A1 (Shandong Simcere Biopharmaceutical Co., Ltd., dated 2025).

For experiment [1], the target named is T1, human CD3 on Jurkat cells and on activated human PBMC (human, UniProt P07766 23-207; P04234 22-171).
T1 construct: whole, on cells; Endogenous CD3 of the T cell receptor complex on cells
Kind of experiment: FACS, Jurkat cells.

Experiment [2] has as its target T1, human CD3 on Jurkat cells and on …. Kind of experiment: FACS, activated human PBMC.
Experiment [3] deals with T2, monkey CD3 on activated monkey PBMC (monkey).
T2 construct: whole, on cells
T2 sequence (Q95LI5 22-198): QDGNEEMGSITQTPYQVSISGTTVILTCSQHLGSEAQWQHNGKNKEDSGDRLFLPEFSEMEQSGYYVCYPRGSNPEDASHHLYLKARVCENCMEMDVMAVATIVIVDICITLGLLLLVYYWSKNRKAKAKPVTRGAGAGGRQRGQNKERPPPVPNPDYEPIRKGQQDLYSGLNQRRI
The experiment can be described thus: FACS, activated monkey PBMC.

The target in experiment [4] is T3, human GPRC5D on CHOK1-human GPRC5D cells (human, UniProt Q9NZD1 1-345).
T3 construct: whole, on cells
T3 sequence (Q9NZD1 whole entry): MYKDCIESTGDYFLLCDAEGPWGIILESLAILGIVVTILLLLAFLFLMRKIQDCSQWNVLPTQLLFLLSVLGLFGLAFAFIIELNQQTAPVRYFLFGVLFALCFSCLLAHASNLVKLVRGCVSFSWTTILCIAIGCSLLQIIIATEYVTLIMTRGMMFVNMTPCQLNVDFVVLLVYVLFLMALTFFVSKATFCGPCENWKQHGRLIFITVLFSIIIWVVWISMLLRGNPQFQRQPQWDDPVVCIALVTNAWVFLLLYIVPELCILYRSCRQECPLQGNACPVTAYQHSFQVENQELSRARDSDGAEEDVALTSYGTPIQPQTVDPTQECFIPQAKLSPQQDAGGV
Kind of experiment: FACS, CHOK1-human GPRC5D cells.

The target in experiment [5] is T4, human BCMA on Flp-inCHO-human BCMA cells (human, UniProt Q02223 1-184).
T4 construct: whole, on cells
T4 sequence (looked up): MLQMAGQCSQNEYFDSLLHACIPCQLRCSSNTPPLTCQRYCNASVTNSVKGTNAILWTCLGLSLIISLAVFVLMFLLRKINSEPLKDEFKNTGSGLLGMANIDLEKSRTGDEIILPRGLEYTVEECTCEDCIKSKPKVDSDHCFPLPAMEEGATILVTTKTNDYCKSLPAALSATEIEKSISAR
Kind of experiment: FACS, Flp-inCHO-human BCMA cells.

Experiment [6] concerns the target T4, human BCMA on Flp-inCHO-human BCMA cells. Kind of experiment: FACS, Flp-inCHO-human BCMA cells. The source holds these as a separate data set.

T1 sequence (P07766 23-207, chain 1 of 2): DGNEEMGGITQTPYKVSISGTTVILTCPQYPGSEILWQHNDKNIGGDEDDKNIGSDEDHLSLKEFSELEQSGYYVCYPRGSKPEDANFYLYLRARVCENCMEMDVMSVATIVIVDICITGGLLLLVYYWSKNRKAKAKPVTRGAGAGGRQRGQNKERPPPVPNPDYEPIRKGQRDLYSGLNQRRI
T1 sequence (P04234 22-171, chain 2 of 2): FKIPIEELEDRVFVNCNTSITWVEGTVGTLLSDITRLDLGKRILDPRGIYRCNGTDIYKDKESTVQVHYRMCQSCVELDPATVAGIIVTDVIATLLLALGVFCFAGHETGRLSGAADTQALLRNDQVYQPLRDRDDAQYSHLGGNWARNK

B1: Tri-41 (trispecific antibody, V domains shown)
VHH: EVQLVESGGGLVQPGGSLRLSCSASGFTLDYYMIGWFRQAPGKEREGLSSISPADGSTYYADSVKGRFTISRDSSKNTVYLQMNSLRAEDTAVYYCAAGNEATISWGFGPWEYDYWGQGTMVTVSS
VH 1: EVQLVQSGAEVKKPGSSVKVSCKASGYTFTSYGISWVRQAPGQGLEWMGEIYPRSGNTYYNEKFKGRVTLTADKSTSTAYMELSSLRSEDTAVYYCARGRAYGRNYPMDYWGQGTTVTVSS
VL 1: EIVLTQSPATLSLSPGERATLSCRASQSIGTSIHWYQQKPGQSPRLLIKYASESISGIPARFSGSGSGTDFTLTISSLEPEDFAVYYCQQSNSWPYTFGGGTKVEIK
VH 2: EVQLVESGGGVVQPGRSLRLSCAASGFTFTDYYMSWVRQAPGKGLEWVAMSRNKAKGHTIEYSSSVKGRFTISRDNSKNTLYLQMNSLRAEDTAVYYCARDTYESYDGYFDVWGQGTTVTVSS
VL 2: DIVMTQSPDSLAVSLGERATINCKSSQSLFNSRSRKNYLAWYQQKPGQTPKLLIYWASIRESGVPDRFSGSGSGTDFTLTISSLQAEDVAVYYCKQSYYLYTFGQGTKLEIK
Turning to B1, the “Maximum mean fluorescence intensity” value in experiment [1] worked out at 85; in experiment [2], 235; in experiment [3] it was 417. Also, the EC50 in experiment [4] came to 4.3 nM; in experiment [5], 1.52 nM.

B2: Tri-55 (trispecific antibody, V domains shown)
VHH: EVQLVESGGGLVQPGGSLRLSCAASESISSIHIMAWYRQAPGKQRELVAGIRNDGSTVYVDSVKGRFTISRDNAKNSLYLQMNSLRAEDTAVYYCNADQGFGSYSEWERRSRWGQGTTVTVSS
VH 1: EVQLVQSGAEVKKPGSSVKVSCKASGYTFTSYGISWVRQAPGQGLEWMGEIYPRSGNTYYNEKFKGRVTLTADKSTSTAYMELSSLRSEDTAVYYCARGRAYGRNYPMDYWGQGTTVTVSS
VL 1: EIVLTQSPATLSLSPGERATLSCRASQSIGTSIHWYQQKPGQSPRLLIKYASESISGIPARFSGSGSGTDFTLTISSLEPEDFAVYYCQQSNSWPYTFGGGTKVEIK
VH 2: EVQLVESGGGVVQPGRSLRLSCAASGFTFTDYYMSWVRQAPGKGLEWVAMSRNKAKGHTIEYSSSVKGRFTISRDNSKNTLYLQMNSLRAEDTAVYYCARDTYESYDGYFDVWGQGTTVTVSS
VL 2: DIVMTQSPDSLAVSLGERATINCKSSQSLFNSRSRKNYLAWYQQKPGQTPKLLIYWASIRESGVPDRFSGSGSGTDFTLTISSLQAEDVAVYYCKQSYYLYTFGQGTKLEIK
B2: the concentration for a half-maximal effect (EC50) in experiment [1] stood at 179 nM; in experiment [2] it was 149 nM; in experiment [3], 159 nM; in experiment [4] it was 6.26 nM; in experiment [5] it was 0.92 nM. Also, the “Maximum mean fluorescence intensity” value in experiment [1] was determined as 4690; in experiment [2], 2260; in experiment [3], 2030.

B3: Tri-32 (trispecific antibody, V domains shown)
VHH: EVQLVESGGGLVQPGGSLRLSCSASGFTLDYYMIGWFRQAPGKEREGLSSISPADGSTYYADSVKGRFTISRDSSKNTVYLQMNSLRAEDTAVYYCAAGNEATISWGFGPWEYDYWGQGTMVTVSS
VH 1: EVQLVQSGAEVKKPGSSVKVSCKASGYTFTSYGISWVRQAPGQGLEWMGEIYPRSGNTYYNEKFKGRVTLTADKSTSTAYMELSSLRSEDTAVYYCARGRAYGRNYPMDYWGQGTTVTVSS
VL 1: EIVLTQSPATLSLSPGERATLSCRASQSIGTSIHWYQQKPGQSPRLLIKYASESISGIPARFSGSGSGTDFTLTISSLEPEDFAVYYCQQSNSWPYTFGGGTKVEIK
VH 2: EVQLVESGGGVVQPGRSLRLSCAASGFTFTDYYMSWVRQAPGKGLEWVAMSRNKAKGHTIEYSSSVKGRFTISRDNSKNTLYLQMNSLRAEDTAVYYCARDTYESYDGYFDVWGQGTTVTVSS
VL 2: DIVMTQSPDSLAVSLGERATINCKSSQSLFNSRSRKNYLAWYQQKPGQTPKLLIYWASIRESGVPDRFSGSGSGTDFTLTISSLQAEDVAVYYCKQSYYLYTFGQGTKLEIK
For B3, the concentration giving a half-maximal response (EC50) in experiment [1] came out at 370 nM; in experiment [4], 3.06 nM; in experiment [5] it was 2.03 nM. Moreover, the entries for the “Maximum mean fluorescence intensity” value in experiment [1], in experiment [2] and in experiment [3] were 3120, 1780 and 1680, respectively.

B4: Tri-49 (trispecific antibody, V domains shown)
VHH: EVQLVESGGGLVQPGGSLRLSCAASESISSIHIMAWYRQAPGKQRELVAGIRNDGSTVYVDSVKGRFTISRDNAKNSLYLQMNSLRAEDTAVYYCNADQGFGSYSEWERRSRWGQGTTVTVSS
VH 1: EVQLVQSGAEVKKPGSSVKVSCKASGYTFTSYGISWVRQAPGQGLEWMGEIYPRSGNTYYNEKFKGRVTLTADKSTSTAYMELSSLRSEDTAVYYCARGRAYGRNYPMDYWGQGTTVTVSS
VL 1: EIVLTQSPATLSLSPGERATLSCRASQSIGTSIHWYQQKPGQSPRLLIKYASESISGIPARFSGSGSGTDFTLTISSLEPEDFAVYYCQQSNSWPYTFGGGTKVEIK
VH 2: EVQLVESGGGVVQPGRSLRLSCAASGFTFTDYYMSWVRQAPGKGLEWVAMSRNKAKGHTIEYSSSVKGRFTISRDNSKNTLYLQMNSLRAEDTAVYYCARDTYESYDGYFDVWGQGTTVTVSS
VL 2: DIVMTQSPDSLAVSLGERATINCKSSQSLFNSRSRKNYLAWYQQKPGQTPKLLIYWASIRESGVPDRFSGSGSGTDFTLTISSLQAEDVAVYYCKQSYYLYTFGQGTKLEIK
As for B4, the half-maximal effective concentration (EC50) in experiment [1] is 157 nM; in experiment [2], 31.8 nM; in experiment [3], 59.4 nM; in experiment [4] it was 2.75 nM; in experiment [5] it was 1.34 nM. In addition, the results for the “Maximum mean fluorescence intensity” value in experiment [1], in experiment [2] and in experiment [3] were 795, 1730 and 1380, respectively.

B5: REGN5459-anti-BCMA-hIgG1 (antibody, V domains shown)
VH: EVQLVESGGGLVQPGGSLRLSCAASGFTFSNFWMTWVRQAPGKGLEWVANMNQDGSEKYYVDSVKGRFTISRDNAKSSLYLQMNSLRAEDTAVYYCARDREYCISTSCYDDFDYWGQGTLVTVSS
VL: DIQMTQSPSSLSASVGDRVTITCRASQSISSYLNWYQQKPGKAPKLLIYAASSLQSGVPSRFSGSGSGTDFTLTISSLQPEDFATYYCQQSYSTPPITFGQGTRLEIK
Consider B5, for which the binding result in experiment [6] is listed as “binds”.
